From patent publication US20120100139A1 (APTEVO RESEARCH AND DEVELOPMENT, published 2012) come the findings set out here.

In experiment [1] the target is T1, Murine CD86-mIgG (R&D Systems, Inc) (murine, UniProt P42082 24-244, limits assumed).
T1 construct: also called muCD86
T1 sequence (looked up): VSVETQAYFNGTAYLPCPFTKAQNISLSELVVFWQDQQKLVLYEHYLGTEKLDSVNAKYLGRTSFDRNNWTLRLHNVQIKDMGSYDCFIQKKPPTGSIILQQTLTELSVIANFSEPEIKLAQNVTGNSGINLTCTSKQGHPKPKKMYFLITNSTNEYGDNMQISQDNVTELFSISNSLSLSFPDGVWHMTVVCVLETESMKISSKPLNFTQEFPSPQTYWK
The experiment in a line: SPR (BIAcore T100), murine CD86-mIgG immobilized on CM5; steady-state equilibrium fit. The method, then:
(§1) SPR measurements were performed on a BIAcore™ T100 SPR (Pharmacia Biotech AB, Uppsala) using HBS-EP+ (GE Healthcare) as a running buffer. Murine CD86-mIgG (25 μg/mL in 10 mM sodium acetate, pH 4.0, R&D Systems, Inc) was directly immobilized onto a CM5 chip using standard amine coupling chemistry (Biacore Amine Coupling Kit, GE Healthcare), with final immobilization levels of 150, 493, and 746 Ru. CTLA4-containing constructs were injected for 150 seconds, at a flow rate of 10 μl/min, in a series of concentrations from 4 nM to 8 μM. Dissociation was monitored for 600 seconds (CTLA4 constructs) or 1200 seconds (GL1 constructs), and the surface was regenerated by injecting 10 mM glycine, pH 1.7, for 60 seconds. […] Data were analyzed using BiaEvaluation for the T100 software (version 2.0.1, GE Healthcare).
On the technique in general: SPR reads the build-up and loss of mass on a sensor chip optically.

Experiment [2] addresses T1, Murine CD86-mIgG (R&D Systems, Inc). The experiment in a line: SPR (BIAcore T100), murine CD86-mIgG immobilized on CM5; bivalent analyte model, first site. How it is done: as §1
For experiment [3] the target is unchanged. The experiment in a line: SPR (BIAcore T100), murine CD86-mIgG immobilized on CM5; bivalent analyte model, second site. How it is done: as §1
In experiment [4] the target is T2, CD86-mIgG (Ancell, Inc) (UniProt P42081 24-247, limits assumed).
T2 construct: Bought reagent
T2 sequence (looked up): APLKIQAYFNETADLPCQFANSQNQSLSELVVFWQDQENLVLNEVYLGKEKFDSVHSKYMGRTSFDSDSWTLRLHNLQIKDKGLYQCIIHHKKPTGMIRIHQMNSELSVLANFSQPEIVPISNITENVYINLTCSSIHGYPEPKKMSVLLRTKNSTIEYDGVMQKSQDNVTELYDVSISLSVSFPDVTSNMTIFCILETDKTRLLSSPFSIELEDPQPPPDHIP
The experiment in a line: SPR (BIAcore T100), CD86-mIgG immobilized on CM5; first site. How it is done:
(§2) SPR measurements were performed on a BIAcore™ T100 SPR (Pharmacia Biotech AB, Uppsala) using HBS-EP+ (GE Healthcare) as a running buffer. […] CTLA4-containing constructs were injected for 150 seconds, at a flow rate of 10 μl/min, in a series of concentrations from 4 nM to 10 μM. Dissociation was monitored for 600 seconds, and the surface was either regenerated by injecting 50 mM sodium citrate, 500 mM sodium chloride, pH 5.0, for 60 seconds (wild type CTLA4) or 10 mM glycine, pH 1.7 (L104E A29Y CTLA4). […] Data were analyzed using BiaEvaluation for the T100 software (version 2.0.1, GE Healthcare).
(§3) SPR measurements were performed as listed above, with the following exceptions: HBS-P+ (GE Healthcare) was used as a running buffer; dissociation was monitored for 1200 seconds; and the surface was regenerated by injecting 10 mM glycine, pH 1.7, for 60 seconds.

In experiment [5] the target is T2, CD86-mIgG (Ancell, Inc). The experiment in a line: SPR (BIAcore T100), CD86-mIgG immobilized on CM5; second site. The method, then: as §2, §3
Experiment [6] addresses T2, CD86-mIgG (Ancell, Inc). The experiment in a line: SPR (BIAcore T100), CD86-mIgG immobilized on CM5; steady-state equilibrium fit. The method, then: as §2, §3

B1: GL1 mAb (parent rat anti-murine CD86 monoclonal antibody) (antibody, V domains shown)
VH: EVQLVESAGGLVQPGRSLKLSCAASGFTFSDYYMAWVRQAPTKGLEWVATISHDGSSTYYRDSVKGRFTISRDNAKTILYLQMDSLRSEDTATYFCARQNIMDYWGQGVMVTVSS
VL: DIVMTQTPSSQAVSAGEKVTMSCKSSQSLLYSRDQSNYLAWYQQKPGQSPKLLIYLASTRESGVPDRFIGSGSGTDFTLTISSVQAEDLADYYCQQHYNYPLTFGSGTKLEIK
notes: also called GL1 antibody
Broadly, the Kd is the constant that tells how readily two partners part at equilibrium. A higher Kd goes with weaker binding. What is called koff is the first-order rate constant of dissociation. A high value points to fast dissociation. A word on the kon: it is a measure of how fast the partners come together. Read a low kon as slow association. The molecule B1 gave a Kd in experiment [1] of 37.7 nM. In experiment [2], this molecule came in with an off-rate constant (koff) of 0.000106 s⁻¹ and a kon of 78900 M⁻¹ s⁻¹. Also, in experiment [3], the “Second Site ka” value turned out to be 0.00879 s⁻¹ and the “Second Site kd” value is 0.00635 s⁻¹.

B2: IL10::FUN1-21 xceptor (Fc fusion)
chain: SPGQGTQSENSCTHFPGNLPNMLRDLRDAFSRVKTFFQMKDQLDNLLLKESLLEDFKGYLGCQALSEMIQFYLEEVMPQAENQDPDIKAHVNSLGENLKTLRLRLRRCHRFLPCENKSKAVEQVKNAFNKLQEKGIYKAMSEFDIFINYIEAYITMKIRNLEPKSSDKTHTCPPCPAPEAAGAPSVFLFPPKPKDTLMISRTPEVTCVVVDVSHEDPEVKFNWYVDGVEVHNAKTKPREEQYNSTYRVVSVLTVLHQDWLNGKAYACAVSNKALPAPIEKTISKAKGQPREPQVYTLPPSRDELTKNQVSLTCLVKGFYPSDIAVEWESNGQPENNYKTTPPVLDSDGSFFLYSKLTVDKSRWQQGNVFSCSVMHEALHNHYTQKSLSLSPGNSLFNQEVQIPLTESYSPNSQVQLVQSGAEVKKPGASVKVSCKASGYTFTDYNMNWVRQAPGQGLEWMGNIDPYYGGTSYNQKFKGRVTMTRDTSISTAYMELSRLRSDDTAVYYCARWDYRYDDGRAYYVMDFWGQGTTVTVSSGGGGSGGGGSGGGGSGGGGSDIVMTQSPDSLAVSLGERATINCKSSQSVLYSSNQKNYLAWYQQKPGQPPKLLIYWASTRESGVPDRFSGSGSGTDFTLTISSLQAEDVAVYYCHQYLYSWTFGQGTKLEIKR
For B2, in experiment [4], the koff stood at 0.000128 s⁻¹ and the kon turned out to be 158000 M⁻¹ s⁻¹. For the same molecule, in experiment [5], the “Second Site ka” value is 0.0064 s⁻¹ and the “Second Site kd” value came out at 0.0387 s⁻¹. In experiment [6], this molecule displayed a Kd of 98.6 nM.

B3: (IL10 I87A::FUN1-21)-75 xceptor (Fc fusion)
chain: SPGQGTQSENSCTHFPGNLPNMLRDLRDAFSRVKTFFQMKDQLDNLLLKESLLEDFKGYLGCQALSEMIQFYLEEVMPQAENQDPDAKAHVNSLGENLKTLRLRLRRCHRFLPCENKSKAVEQVKNAFNKLQEKGIYKAMSEFDIFINYIEAYITMKIRNLEPKSSDKTHTCPPCPAPEAAGAPSVFLFPPKPKDTLMISRTPEVTCVVVDVSHEDPEVKFNWYVDGVEVHNAKTKPREEQYNSTYRVVSVLTVLHQDWLNGKAYACAVSNKALPAPIEKTISKAKGQPREPQVYTLPPSRDELTKNQVSLTCLVKGFYPSDIAVEWESNGQPENNYKTTPPVLDSDGSFFLYSKLTVDKSRWQQGNVFSCSVMHEALHNHYTQKSLSLSPGQRHNNSSLNTGTQMAGHSPNSQVQLVQSGAEVKKPGASVKVSCKASGYTFTDYNMNWVRQAPGQGLEWMGNIDPYYGGTSYNQKFKGRVTMTRDTSISTAYMELSRLRSDDTAVYYCARWDYRYDDGRAYYVMDFWGQGTTVTVSSGGGGSGGGGSGGGGSGGGGSDIVMTQSPDSLAVSLGERATINCKSSQSVLYSSNQKNYLAWYQQKPGQPPKLLIYWASTRESGVPDRFSGSGSGTDFTLTISSLQAEDVAVYYCHQYLYSWTFGQGTKLEIKR
In experiment [4], B3 gave a koff of 0.000433 s⁻¹ and a kon of 40700 M⁻¹ s⁻¹. In experiment [5], the “Second Site ka” value was 0.0198 s⁻¹ and the “Second Site kd” value is 0.0579 s⁻¹. Moreover, binding in experiment [6] was put at a Kd of 88.5 nM.

B4: GL1 SMIP (Fc fusion)
chain: EVQLVESAGGLVQPGRSLKLSCAASGFTFSDYYMAWVRQAPTKGLEWVATISHDGSSTYYRDSVKGRFTISRDNAKTILYLQMDSLRSEDTATYFCARQNIMDYWGQGVMVTVSSGGGGSGGGGSGGGGSGGGGSDIVMTQTPSSQAVSAGEKVTMSCKSSQSLLYSRDQSNYLAWYQQKPGQSPKLLIYLASTRESGVPDRFIGSGSGTDFTLTISSVQAEDLADYYCQQHYNYPLTFGSGTKLEIKLEPKSSDKTHTCPPCPAPEAAGAPSVFLFPPKPKDTLMISRTPEVTCVVVDVSHEDPEVKFNWYVDGVEVHNAKTKPREEQYNSTYRVVSVLTVLHQDWLNGKAYACAVSNKALPAPIEKTISKAKGQPREPQVYTLPPSRDELTKNQVSLTCLVKGFYPSDIAVEWESNGQPENNYKTTPPVLDSDGSFFLYSKLTVDKSRWQQGNVFSCSVMHEALHNHYTQKSLSLSPG
notes: SMIP containing a single-chain GL1 antibody fragment
On to B4, for which the Kd in experiment [1] was found to be 26.2 nM. Further, in experiment [2], the koff amounted to 6.2e-05 s⁻¹ and the kon came to 118000 M⁻¹ s⁻¹. Further, in experiment [3], the “Second Site ka” value was determined as 0.00964 s⁻¹ and the “Second Site kd” value worked out at 0.0185 s⁻¹.

B5: (monoIL10-A2 hinge::FUN1-21)-75 xceptor (Fc fusion)
chain: SPGQGTQSENSCTHFPGNLPNMLRDLRDAFSRVKTFFQMKDQLDNLLLKESLLEDFKGYLGCQALSEMIQFYLEEVMPQAENQDPDIKAHVNSLGENLKTLRLRLRRCHRFLPCENGGGSGGKSKAVEQVKNAFNKLQEKGIYKAMSEFDIFINYIEAYITMKIRNLEPPPPPCPPCPAPEAAGAPSVFLFPPKPKDTLMISRTPEVTCVVVDVSHEDPEVKFNWYVDGVEVHNAKTKPREEQYNSTYRVVSVLTVLHQDWLNGKAYACAVSNKALPAPIEKTISKAKGQPREPQVYTLPPSRDELTKNQVSLTCLVKGFYPSDIAVEWESNGQPENNYKTTPPVLDSDGSFFLYSKLTVDKSRWQQGNVFSCSVMHEALHNHYTQKSLSLSPGQRHNNSSLNTGTQMAGHSPNSQVQLVQSGAEVKKPGASVKVSCKASGYTFTDYNMNWVRQAPGQGLEWMGNIDPYYGGTSYNQKFKGRVTMTRDTSISTAYMELSRLRSDDTAVYYCARWDYRYDDGRAYYVMDFWGQGTTVTVSSGGGGSGGGGSGGGGSGGGGSDIVMTQSPDSLAVSLGERATINCKSSQSVLYSSNQKNYLAWYQQKPGQPPKLLIYWASTRESGVPDRFSGSGSGTDFTLTISSLQAEDVAVYYCHQYLYSWTFGQGTKLEIKR
notes: also called monoIL10::FUN1-21
In experiment [4], B5 returned a koff of 0.000344 s⁻¹ and a kon of 12600 M⁻¹ s⁻¹. Further, in experiment [5], the “Second Site ka” value turned out to be 0.011 s⁻¹ and the “Second Site kd” value turned out to be 0.0111 s⁻¹. In addition, in experiment [6], the Kd was 178 nM.

B6: GL1 PIMS (Fc fusion)
chain: EPKSSDKTHTCPPCPAPEAAGAPSVFLFPPKPKDTLMISRTPEVTCVVVDVSHEDPEVKFNWYVDGVEVHNAKTKPREEQYNSTYRVVSVLTVLHQDWLNGKAYACAVSNKALPAPIEKTISKAKGQPREPQVYTLPPSRDELTKNQVSLTCLVKGFYPSDIAVEWESNGQPENNYKTTPPVLDSDGSFFLYSKLTVDKSRWQQGNVFSCSVMHEALHNHYTQKSLSLSPGNSLFNQEVQIPLTESYSPNSEVQLVESAGGLVQPGRSLKLSCAASGFTFSDYYMAWVRQAPTKGLEWVATISHDGSSTYYRDSVKGRFTISRDNAKTILYLQMDSLRSEDTATYFCARQNIMDYWGQGVMVTVSSGGGGSGGGGSGGGGSGGGGSDIVMTQTPSSQAVSAGEKVTMSCKSSQSLLYSRDQSNYLAWYQQKPGQSPKLLIYLASTRESGVPDRFIGSGSGTDFTLTISSVQAEDLADYYCQQHYNYPLTFGSGTKLEIK
B6 gave an equilibrium dissociation constant (Kd) in experiment [1] of 78.3 nM. In experiment [2], the koff stood at 0.000125 s⁻¹ and the kon came out at 177000 M⁻¹ s⁻¹. In experiment [3], the “Second Site ka” value was found to be 0.0431 s⁻¹ and the “Second Site kd” value came to 0.0977 s⁻¹.
